Assay results reported in patent US20170355730A1.
Starred links: 1 amine or outer side, 2 acyl side, 3 side chain; linkers in the order of their positions; H or OH if unused. Non-standard residues stand in square brackets, D forms with d. Primed or numbered codes have the meaning given here. No end group written: not given here. Trimesoyl = O=C(c1cc(C(=O)[*:2])cc(C(=O)[*:3])c1)[*:1]; dPhe(4-CN) = N#Cc1ccc(C[C@@H](N)C(=O)O)cc1; d(pT) = C[C@H](OP(=O)(O)O)[C@@H](N)C(=O)O; Phe(4-F) = N[C@@H](Cc1ccc(F)cc1)C(=O)O; 2Nal = N[C@@H](Cc1ccc2ccccc2c1)C(=O)O; Pip′ = L-homoproline (pipecolyl); D‑4‑Phe = not defined here; Pip = O=C(O)[C@@H]1CCCCN1; d4Phe = not defined here; Dap = NC[C@H](N)C(=O)O; βAla = NCCC(=O)O; Sar = CNCC(=O)O

Target: Pin1 (Example 6, construct not stated) (human) (UniProt Q13526)
Experiment: fluorescence anisotropy

B1: peptide 35 (Table 18) (peptide)
peptide: Trimesoyl-[D‑2‑Fpa][Phe(4-F)][dT][Pip′][2Nal]RA[dF][Dap]F[2Nal]RRRR[Dap]K
modifications: linker (positions not given here) via Trimesoyl; not fully specified (C-terminus, bridges); printed as bicyclo[Tm-(D-2-Fpa-Fpa-D-Thr-Pip-Nal-Arg-Ala-D-Phe)-Dap-(Phe-Nal-Arg-Arg-Arg-Arg-Dap)]-Lys
Kd: 590 nM

B2: peptide 36 (Table 18) (peptide)
peptide: Trimesoyl-[D‑3‑Fpa][Phe(4-F)][dT][Pip′][2Nal]RA[dF][Dap]F[2Nal]RRRR[Dap]K
modifications: linker (positions not given here) via Trimesoyl; not fully specified (C-terminus, bridges); printed as bicyclo[Tm-(D-3-Fpa-Fpa-D-Thr-Pip-Nal-Arg-Ala-D-Phe)-Dap-(Phe-Nal-Arg-Arg-Arg-Arg-Dap)]-Lys
Kd: 390 nM

B3: peptide 38 (Table 18) (peptide)
peptide: Trimesoyl-[dPhe(4-CN)][Phe(4-F)][dT][Pip′][2Nal]RA[dF][Dap]F[2Nal]RRRR[Dap]K
modifications: linker (positions not given here) via Trimesoyl; not fully specified (C-terminus, bridges); printed as bicyclo[Tm-(D-4-CyanoPhe-Fpa-D-Thr-Pip-Nal-Arg-Ala-D-Phe)-Dap-(Phe-Nal-Arg-Arg-Arg-Arg-Dap)]-Lys
Kd: 350 nM

B4: peptide 39 (Table 18) (peptide)
peptide: Trimesoyl-[D‑4‑Phe][Phe(4-F)][dI][Pip′][2Nal]RA[dF][Dap]F[2Nal]RRRR[Dap]K
modifications: linker (positions not given here) via Trimesoyl; not fully specified (C-terminus, bridges); printed as bicyclo[Tm-(D-4-Phe-Fpa-D-Ile-Pip-Nal-Arg-Ala-D-Phe)-Dap-(Phe-Nal-Arg-Arg-Arg-Arg-Dap)]-Lys; reading uncertain
Kd: 460 nM

B5: peptide 41 (Table 18) (peptide)
peptide: Trimesoyl-[d4Phe][Phe(4-F)][dhGlu][Pip][2Nal]RA[dF][Dap]F[2Nal]RRRR[Dap]K
modifications: linker (positions not given here) via Trimesoyl; not fully specified (bridges); printed as bicyclo[Tm-(D-4-Phe-Fpa-D-homoGlu-Pip-Nal-Arg-Ala-D-Phe)-Dap-(Phe-Nal-Arg-Arg-Arg-Arg-Dap)]-Lys; reading uncertain
Kd: 870 nM

B6: peptide 42 (Table 18) (peptide)
peptide: Trimesoyl-[dF][Phe(4-F)][dT][Pip′][2Nal]RA[dF][Dap]RRRR[2Nal]F[Dap]K
modifications: linker (positions not given here) via Trimesoyl; not fully specified (C-terminus, bridges); printed as bicyclo[Tm-(D-Phe-Fpa-D-Thr-Pip-Nal-Arg-Ala-D-Phe)-Dap-(Arg-Arg-Arg-Arg-Nal-Phe-Dap)]-Lys
Kd: 980 nM

B7: peptide 43 (Table 18) (peptide)
peptide: Trimesoyl-[dF][Phe(4-F)][dT][Pip′][2Nal]RA[dF][Dap]RR[2Nal]FRR[Dap]K
modifications: linker (positions not given here) via Trimesoyl; not fully specified (C-terminus, bridges); printed as bicyclo[Tm-(D-Phe-Fpa-D-Thr-Pip-Nal-Arg-Ala-D-Phe)-Dap-(Arg-Arg-Nal-Phe-Arg-Arg-Dap)]-Lys
Kd: 1380 nM

B8: peptide 44 (Table 18) (peptide)
peptide: Trimesoyl-[dF][Phe(4-F)][dT][Pip′][2Nal]RA[dF][Dap]R[2Nal]RFRR[Dap]K
modifications: linker (positions not given here) via Trimesoyl; not fully specified (C-terminus, bridges); printed as bicyclo[Tm-(D-Phe-Fpa-D-Thr-Pip-Nal-Arg-Ala-D-Phe)-Dap-(Arg-Nal-Arg-Phe-Arg-Arg-Dap)]-Lys
Kd: 450 nM

B9: peptide 45 (Table 18) (peptide)
peptide: Trimesoyl-[dF][Phe(4-F)][dT][Pip′][2Nal]RA[dF][Dap][dR]R[dR]R[2Nal][dF][Dap]K
modifications: linker (positions not given here) via Trimesoyl; not fully specified (C-terminus, bridges); printed as bicyclo[Tm-(D-Phe-Fpa-D-Thr-Pip-Nal-Arg-Ala-D-Phe)-Dap-(D-Arg-Arg-D-Arg-Arg-Nal-D-Phe-Dap)]-Lys
Kd: 3100 nM

B10: peptide 46 (Table 18) (peptide)
peptide: [dA][Sar][d(pT)][Pip′][2Nal]YQK
modifications: lactam (positions not given here); not fully specified (C-terminus, bridges); printed as cyclo(D-Ala-Sar-D-pThr-Pip-Nal-Tyr-Gln)-Lys
Kd: 240 nM

B11: peptide 22 (Table 18) (peptide)
peptide: Trimesoyl-P[Sar][dD][Pip′][2Nal]RR[dF][Dap]F[2Nal]RRRR[Dap]K-NH2
modifications: linker (positions not given here) via Trimesoyl; not fully specified (some residues, bridges); printed as bicyclo[Tm-(Pro-Sar-D-Asp-Pip-Nal-Arg-Arg-D-Phe)-Dap-(Phe-Nal-Arg-Arg-Arg-Arg-Dap)]-Lys
Kd: 480 nM
fold increase of Pin1 inhibitory activity on substitution of D-Phe for D-Ala: 2 fold

B12: peptide 27 (Table 18) (peptide)
peptide: Trimesoyl-[dF][Phe(4-F)][dT][Pip′][2Nal]RA[dF][Dap]F[2Nal]RRRR[Dap]K-NH2
modifications: linker (positions not given here) via Trimesoyl; not fully specified (some residues, bridges); printed as bicyclo[Tm-(D-Phe-4-Fpa-D-Thr-Pip-Nal-Arg-Ala-D-Phe)-Dap-(Phe-Nal-Arg-Arg-Arg-Arg-Dap)]-Lys
Kd: 270 nM
fold improvement of binding affinity against peptide 4: 2 fold

B13: peptide 10 (Table 18) (peptide)
peptide: Trimesoyl-P[Sar][dD][Pip′][2Nal]R[Dap]F[2Nal]RRRR[Dap]K-NH2
modifications: linker (positions not given here) via Trimesoyl; not fully specified (some residues, bridges); printed as bicyclo[Tm-(Pro-Sar-D-Asp-Pip-Nal-Arg)-Dap-(Phe-Nal-Arg-Arg-Arg-Arg-Dap)]-Lys
Kd: 3420 nM

B14: peptide 11 (Table 18) (peptide)
peptide: Trimesoyl-[dF][Phe(4-F)][dT][Pip][2Nal]RA[Dap]F[2Nal]RRRR[Dap]K
modifications: linker (positions not given here) via Trimesoyl; not fully specified (C-terminus, bridges); printed as bicyclo[Tm-(D-Phe-Fpa-D-Thr-Pip-Nal-Arg-Ala)-Dap-(Phe-Nal-Arg-Arg-Arg-Arg-Dap)]-Lys; also: FITC on C-terminal Lys side chain (FA labeling)
Kd: 900 nM

B15: peptide 12 (Table 18) (peptide)
peptide: Trimesoyl-[dF][Phe(4-F)][dT][Pip′][2Nal]R[Dap]F[2Nal]RRRR[Dap]K-NH2
modifications: linker (positions not given here) via Trimesoyl; not fully specified (some residues, bridges); printed as bicyclo[Tm-(D-Phe-Fpa-D-Thr-Pip-Nal-Arg)-Dap-(Phe-Nal-Arg-Arg-Arg-Arg-Dap)]-Lys
Kd: 2360 nM

B16: peptide 14 (Table 18) (peptide)
peptide: Trimesoyl-P[Sar][dD][Pip′][2Nal]R[βAla][dA][Dap]F[2Nal]RRRR[Dap]K-NH2
modifications: linker (positions not given here) via Trimesoyl; not fully specified (some residues, bridges); printed as bicyclo[Tm-(Pro-Sar-D-Asp-Pip-Nal-Arg-β-Ala-D-Ala)-Dap-(Phe-Nal-Arg-Arg-Arg-Arg-Dap)]-Lys
Kd: 1750 nM

B17: peptide 15 (Table 18) (peptide)
peptide: Trimesoyl-P[Sar][dD][Pip′][2Nal]R[βAla][βAla][Dap]F[2Nal]RRRR[Dap]K-NH2
modifications: linker (positions not given here) via Trimesoyl; not fully specified (some residues, bridges); printed as bicyclo[Tm-(Pro-Sar-D-Asp-Pip-Nal-Arg-β-Ala-β-Ala)-Dap-(Phe-Nal-Arg-Arg-Arg-Arg-Dap)]-Lys
Kd: 4830 nM

B18: peptide 16 (Table 18) (peptide)
peptide: Trimesoyl-P[Sar][dD][Pip′][2Nal]RA[dA][dA][Dap]F[2Nal]RRRR[Dap]K-NH2
modifications: linker (positions not given here) via Trimesoyl; not fully specified (some residues, bridges); printed as bicyclo[Tm-(Pro-Sar-D-Asp-Pip-Nal-Arg-Ala-D-Ala-D-Ala)-Dap-(Phe-Nal-Arg-Arg-Arg-Arg-Dap)]-Lys
Kd: 2490 nM

B19: peptide 17 (Table 18) (peptide)
peptide: Trimesoyl-P[Sar][dD][Pip′][2Nal]RY[dA][Dap]F[2Nal]RRRR[Dap]K-NH2
modifications: linker (positions not given here) via Trimesoyl; not fully specified (some residues, bridges); printed as bicyclo[Tm-(Pro-Sar-D-Asp-Pip-Nal-Arg-Tyr-D-Ala)-Dap-(Phe-Nal-Arg-Arg-Arg-Arg-Dap)]-Lys
Kd: 2170 nM

B20: peptide 18 (Table 18) (peptide)
peptide: Trimesoyl-P[Sar][dD][Pip′][2Nal]RV[dA][Dap]F[2Nal]RRRR[Dap]K-NH2
modifications: linker (positions not given here) via Trimesoyl; not fully specified (some residues, bridges); printed as bicyclo[Tm-(Pro-Sar-D-Asp-Pip-Nal-Arg-Val-D-Ala)-Dap-(Phe-Nal-Arg-Arg-Arg-Arg-Dap)]-Lys
Kd: 1750 nM
